From article PMC11192315 (PLOS Pathogens, 2024)

Columns and labels:
[1] = target: T1, SARS-CoV-2 RBD, wild type (Wuhan-Hu-1) (SARS-CoV-2, UniProt P0DTC2); experiment: cell-based or functional assay
[2] = target: T1, SARS-CoV-2 RBD, wild type (Wuhan-Hu-1); experiment: ELISA; conditions: both partners purified
[3] = target: RBD domain (333-530) of SARS-CoV-2 WT Spike (SARS-CoV-2, UniProt P0DTC2); experiment: crystal structure; conditions: both partners purified

Binder | binding result [2] | other results
JH-8B (human IgG mAb) (antibody, V domains shown) VH: EVQLVESGGGLIQPGGSLRLSCAASGVTVSSNYMSWVRQAPGKGLEWISLIYSGGSTYYADSVKGRFTISRDNSKNTLYLQMNSLRAEDTAVYYCARELDIVGATDIWGQGTMVTVSS VL: not shown | – | IC50, neutralisation of pseudotyped lentivirus with WT spike [1]: 9 ng/mL
JE-5C (human IgG mAb) (antibody, V domains shown) VH: EVQLLESGGGLVQPGGSLRLSCAASGVTVTSNYMSWVRQAPGKGLEWVSVIYSGGSTYYADSVKGRFTISRHNSKNTLYLQMNSLRAEDTAVYYCARDLREAGGMDVWGQGTTVTVSS VL: DIVMTQSPSSLSASVGDRVTITCQASQDINNYLNWYQQKPGKAPKLLIYDASNLETGVPSRFSGSGSGTDFTFTISSLQPEDIATYYCQQFDNLPWTFGQGTKVEIR | binds | –
JE-5C Fab (Fab, V domains shown) VH: EVQLLESGGGLVQPGGSLRLSCAASGVTVTSNYMSWVRQAPGKGLEWVSVIYSGGSTYYADSVKGRFTISRHNSKNTLYLQMNSLRAEDTAVYYCARDLREAGGMDVWGQGTTVTVSS VL: DIVMTQSPSSLSASVGDRVTITCQASQDINNYLNWYQQKPGKAPKLLIYDASNLETGVPSRFSGSGSGTDFTFTISSLQPEDIATYYCQQFDNLPWTFGQGTKVEIR | – | binding result [3]: binds
JM-1A Fab (Fab, V domains shown) VH: QVQLQQSGPGLVKPSGTLSLTCAVSGASISSGDWWSWVRQSPGRGLEWIGGIFHSGTTNYSPSLKSRVTMSVDQPKNQFSLHLTSVTAADTAVYYCARMRGIFDYWGQGTLVTVSS VL: DIQLTQSPSSLSVSVGDRVTITCRASQAISNSLAWYQQKPGKAPKLLLYAASTLESGVPSRFSGSGSGTDFTLTISSLQPEDFATYYCQHYYSTPFFGGGTKVEIK | – | binding result [3]: binds
JM-1A (human IgG mAb) (antibody, V domains shown) VH: QVQLQQSGPGLVKPSGTLSLTCAVSGASISSGDWWSWVRQSPGRGLEWIGGIFHSGTTNYSPSLKSRVTMSVDQPKNQFSLHLTSVTAADTAVYYCARMRGIFDYWGQGTLVTVSS VL: DIQLTQSPSSLSVSVGDRVTITCRASQAISNSLAWYQQKPGKAPKLLLYAASTLESGVPSRFSGSGSGTDFTLTISSLQPEDFATYYCQHYYSTPFFGGGTKVEIK | binds | –
JL-8C (human IgG mAb) (antibody, V domains shown) VH: QVQLVQSGAEVKKPGESLKISCKGSGYSFTSHWIGWVRQKPGKGLEWVGIIHPYDSDTRYSPSFQGLVTFSADKSSSTAYLQWSSLQASDTAIYYCARRTDQYGSHGMDVWGQGTTVTVSS VL: QSVLTQPPSASGTPGQRVTISCSGGSSNIGGNPVNWYQQLPATAPKLLIYNNNQRPSGVSDRFSGSKSGTSASLAISGLQSVDEADYFCAAWDDSLNGVLFGGGTKLTVL | binds | –
C121 (Class 2 human mAb) (antibody, V domains shown) VH: not shown VL: QSALTQPASVSGSPGQSITISCTGTSSDVGSYNLVSWYQQHPGKAPKLMIYEGSKRPSGVSNRFSGSKSGNTASLTISGLQAEDEADYYCCSYAGSSTLVFGGGTKLTVL | binds | –
IY-2A (Class 4 human mAb) (antibody, V domains shown) VH: QVQLVEWGAGLLKPSETLSLTCAVYGGSFSGYYWSWIRQPPGKGLEWIGLINHSGSTNYNPSLKSRVTISLDTSKNQFSLKLTSVTAADTAVYYCARGLGIFGVVTLSDVWGQGTTVTVSS VL: NFMLTQPHSVSESPGKTVTISCTGSSGSIASNYVQWYQQRPGSAPTTVIYEDNQRPSGVPDRFSGSIDSSSNSASLTISGLRTEDEADYYCQSYDSGIWVFGGGTKLTVL | binds | –
FI-3A (Class 1 human mAb) (antibody, V domains shown) VH: EVQLLESGGGLIQPGGSLRLSCAASGFTVSSNYMSWVRQAPGKGLEWVSVIYSGGSTYYADSVKGRFTISRDNSKNTLYLQMNSLRAEDTAVYYCARDHVRPGMNIWGQGTMVTVSS VL: not shown | binds | –
FD-11A (Class 3 human mAb) (antibody, V domains shown) VH: EVQLVESGGGVVQPGRSLRLSCAASGFTFSSYGMHWVRQAPGKGLEWVAVIWYDGSNKYYADSVKGRFTISRDNSKNTLYLQMNSLRAEDTAVYYCAKGPDILTGYYNYYYYGMDVWGQGTMVTVSS VL: QSVLTQPPSVSGAPGQRVTISCTGSSSNIGAGYDVHWYQQLPGTAPKLLIYGNSNRPSGVPDRFSGSKSGTSASLAITGLQAEDEADYYCQSYDSSLSGFYVVFGGGTKLTVL | binds | –
